From article PMC9279936
pKd: −log10 of the molar value.

What was measured:
[1] = tested on: influenza A virus hemagglutinin (on whole virus particles) (Influenza A virus (strain not in the material)); assay: BLI; details: BLI: 10 mM Tris-HCl pH 7.5, 140 mM NaCl, 10 mM KCl ([…], temperature not stated; cited from earlier work
[2] = tested on: influenza A virus hemagglutinin (on whole virus particles) (Influenza A virus (strain not in the material)); assay: BLI; details: BLI: 10 mM Tris-HCl pH 7.5, 140 mM NaCl, 10 mM KCl ([…], temperature not stated

**Q.** With “TTGGGGTTATTTTGGGAGGGCGGGGGTT [RHA0385 (biotinylated)]” as the sequence, how does the pKd [1] read?
**A.** Its pKd is 10.30.

**Q.** And the pKd [2]?
**A.** The pKd was 8.96.
